The assay addresses Nud1 pT78 peptide (budding yeast).

B1: Mob1 (construct not stated for this experiment) (natural protein)
chain: MSFLQNFHISPGQTIRSTRGFKWNTANAANNAGSVSPTKATPHNNTINGNNNNANTINNRADFTNNPVNGYNESDHGRMSPVLTTPKRHAPPPEQLQNVTDFNYTPSHQKPFLQPQAGTTVTTHQDIKQIVEMTLGSEGVLNQAVKLPRGEDENEWLAVHCVDFYNQINMLYGSITEFCSPQTCPRMIATNEYEYLWAFQKGQPPVSVSAPKYVECLMRWCQDQFDDESLFPSKVTGTFPEGFIQRVIQPILRRLFRVYAHIYCHHFNEILELNLQTVLNTSFRHFCLFAQEFELLRPADFGPLLELVMELRDR
B1 yielded a Kd of 2400 nM.

For orientation: Kd means the constant that tells how readily two partners part at equilibrium. Read a high Kd as weaker binding.
